Laboratory results taken from doi:10.1101/2024.08.25.607996 (2024).
Several values for one entry are separate records, joined by “and”; a condition that tells them apart may be missing. Equal values may be shown once.

T1: CCoV-HuPn-2018 S domain B (receptor-binding domain), residues 523-671, avi- and His-tagged (CCoV-HuPn-2018 (canine coronavirus))
T1 chain: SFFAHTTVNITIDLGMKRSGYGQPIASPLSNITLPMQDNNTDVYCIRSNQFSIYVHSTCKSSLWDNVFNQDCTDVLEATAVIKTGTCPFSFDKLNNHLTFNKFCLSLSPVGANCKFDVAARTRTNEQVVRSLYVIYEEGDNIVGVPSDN


Legend:
[1] = biological target: FCoV-23 S domain B (receptor-binding domain), residues 529-677, avi- and His-tagged (FCoV-23 (feline coronavirus)); test: BLI
[2] = biological target: T1, CCoV-HuPn-2018 S domain B …; test: BLI

Binder | Kd [1] | koff [1] | Kd [2]
canine APN-Fc ectodomain (dimeric) (Fc fusion) LAQSKPWNHYRLPKTLIPSSYNVTLRPYLTPNSNGLYTFKGSSTVRFTCKESTSMIIIHSKKLNYTNIQGQRVALRGVGGSQAPAIDRTELVEVTEYLVVHLREPLQVNSQYEMDSKFEGELADDLAGFYRSEYTENGVKKVLATTQMQAADARKSFPCFDEPAMKATFNITLIHPSNLVALSNMLPRGPSVPFTEEPNWNVTEFETTPIMSTYLLAYIVSEFKNVQENTPSNVLIRIWARPSAMDQGHGNYALRVTGPILDFFSRHYDTPYPLNKSDQIALPDFNAGAMENWGLVTYRESALLYDPQSSSIGNKERVVTVIAHELAHQWFGNLVTLEWWNDLWLNEGFASYVEYLGADYAEPTWNLKDLIVLNEVYRVMAVDALASSHPLSSPASEVNTPAQISEVFDSISYSKGASVLRMLSSFLTEDLFKKGVASYLHTFAYQNTIYLDLWNHLQWALGNQTAINLPYTVNAIMDRWILQMGFPVVTVDTTTGTLSQKHFLLDPQSNVTRPSKFNYLWIIPISSVKSGTQQAHYWMPDNAKVQNDLFKTTGDEWVLLNLNVTGYYLVNYDQNNWKKIHTQLQTDLSVIPVINRAQVIHDTFDLASAQIVPVTLALNSTLFLNQETEYMPWEAALSSLSYFKLMFDRSEVYGPMKNYLRKQVTPLFNHFEKITQNWTDHPQTLTEQYNEINAVSTACTYGVPKCKDLVSTLFAEWRKNPQNNPIYPNLRSTVYCNAIAQGGEEEWNFVWEQFRNTSLVNEADKLRSALACSTQVWILNRYLSYTLNPEFIRKQDVISTLSSIASNVIGQSLAWDFIQSNWKKLFEDYGTGSFSFSNLIQAVTRRFSTEFELQQLEQFKANNMDTGFGSGTRALEQALEKTKANIKWVKENKEAVLQWFRENSQ | 1.2 nM | 0.00019 s⁻¹ and 0.00018 s⁻¹ | 2.6 nM
feline APN-Fc ectodomain (dimeric) (Fc fusion) DQSKPWNVYRLPKTLIPDSYNVTLRPYLTPNNKGLYVFTGTNIVRFTCKESTNIVIIHSKRLNYTSHQGHMVALSGVGGFHPQPVIVRTELVELTEYLVVHLQEPLVAGRQYEMNSEFQGELADDLAGFYRSEYMENGVKKVLATTHMQATEARKSFPCFDEPAMKATFNITIIHPNNLVALSNMLPRGPSVPFGEDPTWKVTEFETTPIMSTYLLAYIVSEFSYVETRAPSGVLIRIWARPSAINQGHGDYALKVTGPILDFFSQHYDTPYPLNKSDQIALPDFNAGAMENWGLVTYRESALLYDRQSSSSGNQERVVTVIAHELAHQWFGNLVTLEWWNDLWLNEGFASYVEYLGADFAEPTWNLKDLMVLNDVYRVMAVDALASSHPLSTPASEINTPAQISEVFDSISYSKGASVLRMLSNFLTEDLFKMGIASYLHTYKYGNTIYLNLWEHLQQVVDKQPTIKLPDTVSAIMDRWILQMGFPVITVDTQTGTISQQHFLLDPQSVVTRPSQFNYLWIVPISSVRSGSPQAHYWLPGVEKAQNDLFKTTANDWVLLNLNVTGYYLVNYDNENWKKIQTQLQTDLSVIPVINRAQVIHDAFNLASAQKVPVTLALNNTLFLIQETEYMPWQAALSSLSYFKLMFDRSEVYGPMKRYLKKQVTPLFNHFERVTKNWTDHPQTLMDQYSEINAVSTACSYGVPECEKLAATLFAQWKKNPQNNPIHPNLRSTVYCNAIAQGGEEEWNFVWEQFLKAELVNEADKLRGALACSNQVWILNRFLSYTLDPNLIRKQDVTSTLSSISSNVVGQTLVWDFVQSNWKKLFQDYGTGSFSFSNLIQAVTRRFSTEFELQQLEQFKKNNMDTGFGSATRALEQALEKTKANLKWVKENKDVVLRWFTENS | 10 nM | 0.0013 s⁻¹ and 0.0014 s⁻¹ | 28 nM
